# Measured values: patent US20240425569A1 (VISTERRA, published 2024)
# Where two headings read alike, the source gives them in different places.
# T1: Venezuela/2008 (serotype IV EDIII)
# T1 E protein domain III (EDIII): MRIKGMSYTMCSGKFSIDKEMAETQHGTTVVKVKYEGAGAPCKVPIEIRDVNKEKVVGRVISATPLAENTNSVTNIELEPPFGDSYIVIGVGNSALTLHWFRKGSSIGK
# T2: EDIII-DV1 (E protein domain III of dengue virus serotype DV-1) (dengue virus serotype DV-1, UniProt P17763 573-680)
# T2 construct: also called DENV-1; EDIII of DV-1
# T2 chain: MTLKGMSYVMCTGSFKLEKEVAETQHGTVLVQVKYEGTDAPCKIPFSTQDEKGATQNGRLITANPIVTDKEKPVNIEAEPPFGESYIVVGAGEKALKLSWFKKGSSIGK
# T3: Nicaragua/2010 (serotype III EDIII)
# T3 construct: also called ED3-DV3/Nicaragua10; DENV-3 Nic
# T3 E protein domain III (EDIII): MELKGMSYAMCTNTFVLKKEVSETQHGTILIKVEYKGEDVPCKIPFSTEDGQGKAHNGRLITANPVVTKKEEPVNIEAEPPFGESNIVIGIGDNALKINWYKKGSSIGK
# T4: Mexico/2007 (serotype I EDIII)
# T4 construct: also called ED3-DV1/Mexico07
# T4 E protein domain III (EDIII): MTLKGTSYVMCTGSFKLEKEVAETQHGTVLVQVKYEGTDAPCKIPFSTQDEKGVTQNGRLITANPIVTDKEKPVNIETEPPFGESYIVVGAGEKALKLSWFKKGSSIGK
# T5: New Caledonia/2009 (serotype IV EDIII)
# T5 construct: also called ED3-DV4/NewCal09; DENV-4 NC
# T5 E protein domain III (EDIII): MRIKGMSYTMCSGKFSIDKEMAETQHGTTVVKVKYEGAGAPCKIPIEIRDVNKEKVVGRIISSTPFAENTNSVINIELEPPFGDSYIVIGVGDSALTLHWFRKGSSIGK
# T6: Brazil/2011 (serotype IV EDIII)
# T6 E protein domain III (EDIII): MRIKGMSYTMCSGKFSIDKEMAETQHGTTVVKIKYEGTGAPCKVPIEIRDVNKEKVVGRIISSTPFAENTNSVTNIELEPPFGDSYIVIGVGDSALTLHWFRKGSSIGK
# B1: antibody D88 (antibody, V domains shown)
# VH: QVQLVQSGAEVKKPGASVKVSCKAGFNIKDVYMSWVRQAPEQGLEWMGRIDPENGDTKYDPKLQGRVTMTADTSTNTAYMELRSLRSDDTAVYYCARGWEGFAYWGQGTLVTVSS
# VL: DIVMTQSPASLAVSLGERATISCRASENVDKYGNSFMHWYQQKPGQPPKLLIYRASELQWGVPDRFSGSGSGTDFTLTISSLQAEDVAVYYCQRSNEVPWTFGQGTKLEIK
# notes: also called mAb D88
# Columns and labels:
# [1] = target: T7, Singapore/2008 (serotype II EDIII); experiment: Kd table, method not stated; Ag DENV-2 Sing
# T7 construct: also called ED3-DV2/Sing08; DENV-2 Sing
# [2] = target: T1, Venezuela/2008 (serotype IV EDIII); experiment: ELISA; row Venezuela/2008, serotype IV, genotype IIa
# [3] = target: T8, EDIII-DV2 (E protein domain III of dengue virus serotype DV-2) (dengue virus serotype DV-2, UniProt P14337 573-677); experiment: competition ELISA
# T8 construct: also called DENV-2; EDIII of DV-2
# T8 sequence (P14337 573-677, tags left off): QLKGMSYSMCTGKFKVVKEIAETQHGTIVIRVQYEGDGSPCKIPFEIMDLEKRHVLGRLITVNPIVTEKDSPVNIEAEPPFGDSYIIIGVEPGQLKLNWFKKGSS
# [4] = target: T9, EDIII-DV3 (E protein domain III of dengue virus serotype DV-3) (dengue virus serotype DV-3, UniProt P27915 571-678); experiment: competition ELISA
# T9 construct: also called DENV-3; EDIII of DV-3
# [5] = target: T2, EDIII-DV1 (E protein domain III of …); experiment: competition ELISA
# [6] = target: T10, Mexico/1977 (BC287/97)* (serotype IV EDIII) (Dengue virus 4); experiment: SPR; row Mexico/1977 (BC287/97)*, serotype IV, genotype IIa
# T10 construct: isolated EDIII protein; also called EDIII of DENV-4 Mexico/1997 (BC287/97); DENV-4 BC2
# [7] = target: ED3-DV4/H241/Phil56 (EDIII of DENV-4 strain H241) (dengue virus serotype DENV-4, strain …, UniProt Q58HT7 572-679); experiment: ELISA; row Philippines/1956 (H241)*, serotype IV, genotype I
# [8] = target: T10, Mexico/1977 (BC287/97)* (serotype IV …); experiment: Kd table, method not stated; Ag DENV-4 BC2
# [9] = target: T3, Nicaragua/2010 (serotype III EDIII)
# [10] = target: T11, Hawaii/1944* (serotype I EDIII) (Dengue virus 1); experiment: ELISA; row Hawaii/1944*, serotype I, genotype I
# T11 construct: isolated EDIII protein; also called EDIII of DENV-1 Hawaii/1944
# [11] = target: T11, Hawaii/1944* (serotype I EDIII); experiment: SPR; row Hawaii/1944*, serotype I, genotype I
# [12] = target: T4, Mexico/2007 (serotype I EDIII)
# [13] = target: dengue virus DENV-2 strain New Guinea/1944 (NGC) (live virus; E protein) (dengue virus serotype DENV-2, strain …, UniProt P14340 281-775); experiment: cell-based or functional assay
# [14] = target: dengue virus DENV-3 strain Philippines/1956 (H87) (live virus; E protein) (dengue virus serotype DENV-3, strain …, UniProt P27915 281-773); experiment: cell-based or functional assay
# [15] = target: dengue virus DENV-1 strain Hawaii/1944 (live virus; E protein) (dengue virus serotype DENV-1, strain …); experiment: cell-based or functional assay
# [16] = target: dengue virus DENV-4 strain Mexico/1997 (BC287/97) (live virus; E protein) (dengue virus serotype DENV-4, strain …); experiment: cell-based or functional assay
# [17] = target: T5, New Caledonia/2009 (serotype IV EDIII); experiment: SPR; row New Caledonia/2009, serotype IV, genotype IIb
# [18] = target: T9, EDIII-DV3 (E protein domain III of …)
# [19] = target: T12, EDIII-DV4 (E protein domain III of dengue virus serotype DV-4) (dengue virus serotype DV-4, UniProt P09866 572-679)
# T12 construct: also called DENV-4
# T12 sequence (P09866 572-679, tags left off): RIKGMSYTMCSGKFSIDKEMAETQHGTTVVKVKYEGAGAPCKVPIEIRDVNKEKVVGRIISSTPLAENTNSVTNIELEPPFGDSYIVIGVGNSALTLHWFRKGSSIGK
# [20] = target: T3, Nicaragua/2010 (serotype III EDIII)
# [21] = target: T6, Brazil/2011 (serotype IV EDIII); experiment: ELISA; row Brazil/2011, serotype IV, genotype I
# [22] = target: T1, Venezuela/2008 (serotype IV EDIII); experiment: SPR; row Venezuela/2008, serotype IV, genotype IIa
binder,measurement,setting,value
B1,Kd,[1],< 0.1 nM
same,Kd,[2],4.5 nM
same,Kd,[3],< 0.1 nM
same,Kd,[4],1.21 nM
same,Kd,[5],< 0.1 nM
same,Kd,[6],3.8 nM
same,Kd,[7],113 nM
same,Kd,[8],7.2 nM
same,Kd,[9],4.91 nM
same,Kd,[10],< 0.1 nM
same,Kd,[11],0.041 nM
same,Kd,[12],< 0.1 nM
same,"EC50, FRNT",[13],< 1 µg/mL
same,"EC50, FRNT",[14],< 1 µg/mL
same,"EC50, FRNT",[15],< 1 µg/mL
same,"EC50, FRNT",[16],< 1 µg/mL
same,Kd,[17],8.9 nM
same,Kd,[18],1.05 nM
same,Kd,[19],5.01 nM
same,Kd,[20],3.36 nM
same,Kd,[21],14.7 nM
same,Kd,[22],3.03 nM
